# Reference: publication PMC10786891, “Massively parallel profiling of RNA-targeting CRISPR-Cas13d”
# T1: EsCas13d, nuclease-dead (Eubacterium siraeum, UniProt B0MS50, R295A;H300A;R849A;H854A)
# T1 sequence: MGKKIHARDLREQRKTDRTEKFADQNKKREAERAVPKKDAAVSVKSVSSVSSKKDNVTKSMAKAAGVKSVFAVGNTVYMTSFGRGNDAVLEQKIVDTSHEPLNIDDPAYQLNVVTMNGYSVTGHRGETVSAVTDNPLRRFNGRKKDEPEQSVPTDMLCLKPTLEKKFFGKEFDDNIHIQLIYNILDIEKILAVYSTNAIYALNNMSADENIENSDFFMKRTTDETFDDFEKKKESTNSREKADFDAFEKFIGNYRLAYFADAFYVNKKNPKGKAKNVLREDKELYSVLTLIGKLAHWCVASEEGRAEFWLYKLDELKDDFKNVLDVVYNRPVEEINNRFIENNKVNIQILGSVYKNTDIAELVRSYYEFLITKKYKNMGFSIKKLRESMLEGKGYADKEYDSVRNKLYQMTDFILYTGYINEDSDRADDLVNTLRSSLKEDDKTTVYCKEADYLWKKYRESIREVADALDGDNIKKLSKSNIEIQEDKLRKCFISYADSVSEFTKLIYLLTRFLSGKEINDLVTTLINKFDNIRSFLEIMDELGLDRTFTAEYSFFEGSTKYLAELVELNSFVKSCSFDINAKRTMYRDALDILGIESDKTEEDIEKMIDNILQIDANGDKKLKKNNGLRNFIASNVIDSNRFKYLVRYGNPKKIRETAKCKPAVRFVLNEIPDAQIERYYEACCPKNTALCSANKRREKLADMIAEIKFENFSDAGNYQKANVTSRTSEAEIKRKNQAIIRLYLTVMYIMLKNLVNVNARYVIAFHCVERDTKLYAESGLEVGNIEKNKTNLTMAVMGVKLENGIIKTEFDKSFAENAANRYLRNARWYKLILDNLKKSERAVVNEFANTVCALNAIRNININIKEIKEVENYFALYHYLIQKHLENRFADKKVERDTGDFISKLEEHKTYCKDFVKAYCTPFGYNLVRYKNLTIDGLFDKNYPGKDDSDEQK
# Molecular target: T1, EsCas13d, nuclease-dead
# Assay: crRNA (strand 1, pre-loaded); Mg2+; 40 mM Tris-HCl pH 7.5, 150 mM NaCl, 6 mM MgCl2, 1 mM DTT, 0.1% Tween-20, 0.2 mg/ml BSA; 25 C; 10 min per concentration, then washed
# Conditions: tags: His6-TwinStrep-SUMO cleaved; N-terminal SNAP kept (SNAP-Surface 488); label: 3' end held by stalled T7 RNA polymerase
row,Binder,Kd [nM]
1,"target 1 A1C,U11A (mixed) RNA 1: CACCCGUGCAAAAAUGCAGGGGUCUAAAACUGAGCGGAUAACCUCUCUAUGG RNA 2: GGGAAUGGAUCCACAUCUACGAAUUCGUACCAUAGAGAGGAUAUCCGCUCCCCGAGAUCGGAAGAGCACACGU",44 ± 10
2,"target 1 insU 3' of 13,insC 3' of 9 (mixed) RNA 1: CACCCGUGCAAAAAUGCAGGGGUCUAAAACUGAGCGGAUAACCUCUCUAUGG RNA 2: GGGAAUGGAUCCACAUCUACGAAUUCGUACCAUAGAGAGUGUUACUCCGCUCACCGAGAUCGGAAGAGCACACGU",18.8 ± 2.4
3,"target 1 insU 3' of 17,insC 3' of 3 (mixed) RNA 1: CACCCGUGCAAAAAUGCAGGGGUCUAAAACUGAGCGGAUAACCUCUCUAUGG RNA 2: GGGAAUGGAUCCACAUCUACGAAUUCGUACCAUAGUAGAGGUUAUCCGCUCCACCGAGAUCGGAAGAGCACACGU",29 ± 5
4,"target 1 G12U,G13U (mixed) RNA 1: CACCCGUGCAAAAAUGCAGGGGUCUAAAACUGAGCGGAUAACCUCUCUAUGG RNA 2: GGGAAUGGAUCCACAUCUACGAAUUCGUACCAUAGAGAUUUUAUCCGCUCACCGAGAUCGGAAGAGCACACGU",7.2 ± 0.5
5,"target 1 insG 3' of 9,insG 3' of 7 (mixed) RNA 1: CACCCGUGCAAAAAUGCAGGGGUCUAAAACUGAGCGGAUAACCUCUCUAUGG RNA 2: GGGAAUGGAUCCACAUCUACGAAUUCGUACCAUAGAGAGGUUAGUCGCGCUCACCGAGAUCGGAAGAGCACACGU",10.7 ± 0.4
6,"target 1 insC 3' of 19,insA 3' of 17 (mixed) RNA 1: CACCCGUGCAAAAAUGCAGGGGUCUAAAACUGAGCGGAUAACCUCUCUAUGG RNA 2: GGGAAUGGAUCCACAUCUACGAAUUCGUACCAUCAGAAGAGGUUAUCCGCUCACCGAGAUCGGAAGAGCACACGU",49 ± 7
7,"target 1 insG 3' of 16,insU 3' of 14 (mixed) RNA 1: CACCCGUGCAAAAAUGCAGGGGUCUAAAACUGAGCGGAUAACCUCUCUAUGG RNA 2: GGGAAUGGAUCCACAUCUACGAAUUCGUACCAUAGAGGAUGGUUAUCCGCUCACCGAGAUCGGAAGAGCACACGU",25.4 ± 2.4
8,"target 1 insA 3' of 10,insC 3' of 10 (mixed) RNA 1: CACCCGUGCAAAAAUGCAGGGGUCUAAAACUGAGCGGAUAACCUCUCUAUGG RNA 2: GGGAAUGGAUCCACAUCUACGAAUUCGUACCAUAGAGAGGUUACAUCCGCUCACCGAGAUCGGAAGAGCACACGU",12.9 ± 1.3
9,"target 1 U10A,C22A (mixed) RNA 1: CACCCGUGCAAAAAUGCAGGGGUCUAAAACUGAGCGGAUAACCUCUCUAUGG RNA 2: GGGAAUGGAUCCACAUCUACGAAUUCGUAACAUAGAGAGGUAAUCCGCUCACCGAGAUCGGAAGAGCACACGU",12.5 ± 1.2
10,"target 1 U3G,U10C (mixed) RNA 1: CACCCGUGCAAAAAUGCAGGGGUCUAAAACUGAGCGGAUAACCUCUCUAUGG RNA 2: GGGAAUGGAUCCACAUCUACGAAUUCGUACCAUAGAGAGGUCAUCCGCGCACCGAGAUCGGAAGAGCACACGU",14 ± 0.6
11,"target 1 insG 3' of 21,insA 3' of 13 (mixed) RNA 1: CACCCGUGCAAAAAUGCAGGGGUCUAAAACUGAGCGGAUAACCUCUCUAUGG RNA 2: GGGAAUGGAUCCACAUCUACGAAUUCGUACCGAUAGAGAGAGUUAUCCGCUCACCGAGAUCGGAAGAGCACACGU",44 ± 5
12,"target 1 insU 3' of 13,insG 3' of 2 (mixed) RNA 1: CACCCGUGCAAAAAUGCAGGGGUCUAAAACUGAGCGGAUAACCUCUCUAUGG RNA 2: GGGAAUGGAUCCACAUCUACGAAUUCGUACCAUAGAGAGUGUUAUCCGCUCGACCGAGAUCGGAAGAGCACACGU",21 ± 4
13,"target 1 insC 3' of 22,insA 3' of 22 (mixed) RNA 1: CACCCGUGCAAAAAUGCAGGGGUCUAAAACUGAGCGGAUAACCUCUCUAUGG RNA 2: GGGAAUGGAUCCACAUCUACGAAUUCGUACCACAUAGAGAGGUUAUCCGCUCACCGAGAUCGGAAGAGCACACGU",10 ± 0.9
14,"target 1 U8A,C22G (mixed) RNA 1: CACCCGUGCAAAAAUGCAGGGGUCUAAAACUGAGCGGAUAACCUCUCUAUGG RNA 2: GGGAAUGGAUCCACAUCUACGAAUUCGUAGCAUAGAGAGGUUAACCGCUCACCGAGAUCGGAAGAGCACACGU",68 ± 13
15,"target 1 U3A,G5A (mixed) RNA 1: CACCCGUGCAAAAAUGCAGGGGUCUAAAACUGAGCGGAUAACCUCUCUAUGG RNA 2: GGGAAUGGAUCCACAUCUACGAAUUCGUACCAUAGAGAGGUUAUCCACACACCGAGAUCGGAAGAGCACACGU",53 ± 8
16,"target 1 C7G,U8C (mixed) RNA 1: CACCCGUGCAAAAAUGCAGGGGUCUAAAACUGAGCGGAUAACCUCUCUAUGG RNA 2: GGGAAUGGAUCCACAUCUACGAAUUCGUACCAUAGAGAGGUUACGCGCUCACCGAGAUCGGAAGAGCACACGU",10.7 ± 0.4
17,"target 1 insA 3' of 13,insA 3' of 13 (mixed) RNA 1: CACCCGUGCAAAAAUGCAGGGGUCUAAAACUGAGCGGAUAACCUCUCUAUGG RNA 2: GGGAAUGGAUCCACAUCUACGAAUUCGUACCAUAGAGAGAAGUUAUCCGCUCACCGAGAUCGGAAGAGCACACGU",7.9 ± 0.4
18,"target 1 insU 3' of 14,insU 3' of 2 (mixed) RNA 1: CACCCGUGCAAAAAUGCAGGGGUCUAAAACUGAGCGGAUAACCUCUCUAUGG RNA 2: GGGAAUGGAUCCACAUCUACGAAUUCGUACCAUAGAGAUGGUUAUCCGCUCUACCGAGAUCGGAAGAGCACACGU",57 ± 8
19,"target 1 C4A,U8A (mixed) RNA 1: CACCCGUGCAAAAAUGCAGGGGUCUAAAACUGAGCGGAUAACCUCUCUAUGG RNA 2: GGGAAUGGAUCCACAUCUACGAAUUCGUACCAUAGAGAGGUUAACCGAUCACCGAGAUCGGAAGAGCACACGU",25.3 ± 2.1
20,"target 1 A18U,C22U (mixed) RNA 1: CACCCGUGCAAAAAUGCAGGGGUCUAAAACUGAGCGGAUAACCUCUCUAUGG RNA 2: GGGAAUGGAUCCACAUCUACGAAUUCGUAUCAUUGAGAGGUUAUCCGCUCACCGAGAUCGGAAGAGCACACGU",74 ± 10
21,"target 1 G5U,G13A (mixed) RNA 1: CACCCGUGCAAAAAUGCAGGGGUCUAAAACUGAGCGGAUAACCUCUCUAUGG RNA 2: GGGAAUGGAUCCACAUCUACGAAUUCGUACCAUAGAGAAGUUAUCCUCUCACCGAGAUCGGAAGAGCACACGU",11.5 ± 0.5
22,"target 1 G12A,G13U (mixed) RNA 1: CACCCGUGCAAAAAUGCAGGGGUCUAAAACUGAGCGGAUAACCUCUCUAUGG RNA 2: GGGAAUGGAUCCACAUCUACGAAUUCGUACCAUAGAGAUAUUAUCCGCUCACCGAGAUCGGAAGAGCACACGU",14.6 ± 1.4
23,"target 1 insA 3' of 12,insA 3' of 5 (mixed) RNA 1: CACCCGUGCAAAAAUGCAGGGGUCUAAAACUGAGCGGAUAACCUCUCUAUGG RNA 2: GGGAAUGGAUCCACAUCUACGAAUUCGUACCAUAGAGAGGAUUAUCCGACUCACCGAGAUCGGAAGAGCACACGU",17.4 ± 1.6
24,"target 1 insC 3' of 22,insU 3' of 17 (mixed) RNA 1: CACCCGUGCAAAAAUGCAGGGGUCUAAAACUGAGCGGAUAACCUCUCUAUGG RNA 2: GGGAAUGGAUCCACAUCUACGAAUUCGUACCCAUAGUAGAGGUUAUCCGCUCACCGAGAUCGGAAGAGCACACGU",25.2 ± 2.7
25,"target 1 insC 3' of 15,insG 3' of 8 (mixed) RNA 1: CACCCGUGCAAAAAUGCAGGGGUCUAAAACUGAGCGGAUAACCUCUCUAUGG RNA 2: GGGAAUGGAUCCACAUCUACGAAUUCGUACCAUAGAGCAGGUUAUGCCGCUCACCGAGAUCGGAAGAGCACACGU",23.3 ± 2.2
26,"target 1 insC 3' of 22,insC 3' of 8 (mixed) RNA 1: CACCCGUGCAAAAAUGCAGGGGUCUAAAACUGAGCGGAUAACCUCUCUAUGG RNA 2: GGGAAUGGAUCCACAUCUACGAAUUCGUACCCAUAGAGAGGUUAUCCCGCUCACCGAGAUCGGAAGAGCACACGU",18 ± 1.8
27,"target 1 A9C,U11A (mixed) RNA 1: CACCCGUGCAAAAAUGCAGGGGUCUAAAACUGAGCGGAUAACCUCUCUAUGG RNA 2: GGGAAUGGAUCCACAUCUACGAAUUCGUACCAUAGAGAGGAUCUCCGCUCACCGAGAUCGGAAGAGCACACGU",59 ± 13
28,"target 1 insA 3' of 8,insG 3' of 3 (mixed) RNA 1: CACCCGUGCAAAAAUGCAGGGGUCUAAAACUGAGCGGAUAACCUCUCUAUGG RNA 2: GGGAAUGGAUCCACAUCUACGAAUUCGUACCAUAGAGAGGUUAUACCGCUGCACCGAGAUCGGAAGAGCACACGU",10 ± 0.7
